# Measurements taken from PMC7619307, “The Golgi vesicle tether p115 can bind directly to the ER exit site organiser Sec16A” (Journal of cell science, 2026).
# B1: full-length p115–GFP (wild type) [human] / endogenous Sec16A (HEK293T) [human (endogenous in HEK293T)] (parent complex)
# chain 1: MNFLRGVMGGQSAGPQHTEAETIQKLCDRVASSTLLDDRRNAVRALKSLSKKYRLEVGIQAMEHLIHVLQTDRSDSEIIGYALDTLYNIISNEEEEEVEENSTRQSEDLGSQFTEIFIKQQENVTLLLSLLEEFDFHVRWPGVKLLTSLLKQLGPQVQQIILVSPMGVSRLMDLLADSREVIRNDGVLLLQALTRSNGAIQKIVAFENAFERLLDIISEEGNSDGGIVVEDCLILLQNLLKNNNSNQNFFKEGSYIQRMKPWFEVGDENSGWSAQKVTNLHLMLQLVRVLVSPTNPPGATSSCQKAMFQCGLLQQLCTILMATGVPADILTETINTVSEVIRGCQVNQDYFASVNAPSNPPRPAIVVLLMSMVNERQPFVLRCAVLYCFQCFLYKNQKGQGEIVSTLLPSTIDATGNSVSAGQLLCGGLFSTDSLSNWCAAVALAHALQENATQKEQLLRVQLATSIGNPPVSLLQQCTNILSQGSKIQTRVGLLMLLCTWLSNCPIAVTHFLHNSANVPFLTGQIAENLGEEEQLVQGLCALLLGISIYFNDNSLESYMKEKLKQLIEKRIGKENFIEKLGFISKHELYSRASQKPQPNFPSPEYMIFDHEFTKLVKELEGVITKAIYKSSEEDKKEEEVKKTLEQHDNIVTHYKNMIREQDLQLEELRQQVSTLKCQNEQLQTAVTQQVSQIQQHKDQYNLLKIQLGKDNQHQGSYSEGAQMNGIQPEEIGRLREEIEELKRNQELLQSQLTEKDSMIENMKSSQTSGTNEQSSAIVSARDSEQVAELKQELATLKSQLNSQSVEITKLQTEKQELLQKTEAFAKSVEVQGETETIIATKTTDVEGRLSALLQETKELKNEIKALSEERTAIKEQLDSSNSTIAILQTEKDKLELEITDSKKEQDDLLVLLADQDQKILSLKNKLKDLGHPVEEEDELESGDQEDEDDESEDPGKDLDHI
# chain 2: MQPPPQTVPSGMAGPPPAGNPRSVFWASSPYRRRANNNAAVAPTTCPLQPVTDPFAFSRQALQSTPLGSSSKSSPPVLQGPAPAGFSQHPGLLVPHTHARDSSQGPCEPLPGPLTQPRAHASPFSGALTPSAPPGPEMNRSAEVGPSSEPEVQTLPYLPHYIPGVDPETSHGGHPHGNMPGLDRPLSRQNPHDGVVTPAASPSLPQPGLQMPGQWGPVQGGPQPSGQHRSPCPEGPVPSGVPCATSVPHFPTPSILHQGPGHEQHSPLVAPPAALPSDGRDEVSHLQSGSHLANNSDPESTFRQNPRIVNHWASPELRQNPGVKNEHRPASALVNPLARGDSPENRTHHPLGAGAGSGCAPLEADSGASGALAMFFQGGETENEENLSSEKAGLSGQADFDDFCSSPGLGRPPAPTHVGAGSLCQALLPGPSNEAAGDVWGDTASTGVPDASGSQYENVENLEFVQNQEVLPSEPLNLDPSSPSDQFRYGPLPGPAVPRHGAVCHTGAPDATLHTVHPDSVSSSYSSRSHGRLSGSARPQELVGTFIQQEVGKPEDEASGSFFKQIDSSPVGGETDETTVSQNYRGSVSQPSTPSPPKPTGIFQTSANSSFEPVKSHLVGVKPFEADRANVVGEVRETCVRQKQCRPAAALPDASPGNLEQPPDNMETLCAPQVCPLPLNSTTEAVHMLPHAGAPPLDTVYPAPEKRPSARTQGPVKCESPATTLWAQSELPDFGGNVLLAPAAPALYVCAKPQPPVVQPPEEAMSGQQSRNPSSAAPVQSRGGIGASENLENPPKMGEEEALQSQASSGYASLLSSPPTESLQNPPVLIAQPDHSYNLAQPINFSVSLSNSHEKNQSWREALVGDRPAVSSWALGGDSGENTSLSGIPTSSVLSLSLPSSVAQSNFPQGSGASEMVSNQPANLLVQPPSQPVPENLVPESQKDRKAGSALPGFANSPAGSTSVVLVPPAHGTLVPDGNKANHSSHQEDTYGALDFTLSRTLENPVNVYNPSHSDSLASQQSVASHPRQSGPGAPNLDRFYQQVTKDAQGQPGLERAQQELVPPQQQASPPQLPKAMFSELSNPESLPAQGQAQNSAQSPASLVLVDAGQQLPPRPPQSSSVSLVSSGSGQAAVPSEQPWPQPVPALAPGPPPQDLAAYYYYRPLYDAYQPQYSLPYPPEPGAASLYYQDVYSLYEPRYRPYDGAASAYAQNYRYPEPERPSSRASHSSERPPPRQGYPEGYYSSKSGWSSQSDYYASYYSSQYDYGDPGHWDRYHYSARVRDPRTYDRRYWCDAEYDAYRREHSAFGDRPEKRDNNWRYDPRFTGSFDDDPDPHRDPYGEEVDRRSVHSEHSARSLHSAHSLASRRSSLSSHSHQSQIYRSHNVAAGSYEAPLPPGSFHGDFAYGTYRSNFSSGPGFPEYGYPADTVWPAMEQVSSRPTSPEKFSVPHVCARFGPGGQLIKVIPNLPSEGQPALVEVHSMEALLQHTSEQEEMRAFPGPLAKDDTHKVDVINFAQNKAMKCLQNENLIDKESASLLWNFIVLLCRQNGTVVGTDIAELLLRDHRTVWLPGKSPNEANLIDFTNEAVEQVEEEESGEAQLSFLTGGPAAAASSLERETERFRELLLYGRKKDALESAMKNGLWGHALLLASKMDSRTHARVMTRFANSLPINDPLQTVYQLMSGRMPAASTCCGDEKWGDWRPHLAMVLSNLNNNMDVESRTMATMGDTLASRGLLDAAHFCYLMAQAGFGVYTKKTTKLVLIGSNHSLPFLKFATNEAIQRTEAYEYAQSLGAETCPLPSFQVFKFIYSCRLAEMGLATQAFHYCEAIAKSILTQPHLYSPVLISQLVQMASQLRLFDPQLKEKPEEESLAAPTWLVHLQQVERQIKEGAGVWHQDGALPQQCPGTPSSEMEQLDRPGLSQPGALGIANPLLAVPAPSPEHSSPSVRLLPSAPQTLPDGPLASPARVPMFPVPLPPGPLEPGPGCVTPGPALGFLEPSGPGLPPGVPPLQERRHLLQEARSPDPGIVPQEAPVGNSLSELSEENFDGKFANLTPSRTVPDSEAPPGWDRADSGPTQPPLSLSPAPETKRPGQAAKKETKEPKKGESWFFRWLPGKKKTEAYLPDDKNKSIVWDEKKNQWVNLNEPEEEKKAPPPPPTSMPKTVQAAPPALPGPPGAPVNMYSRRAAGTRARYVDVLNPSGTQRSEPALAPADFVAPLAPLPIPSNLFVPTPDAEEPQLPDGTGREGPAAARGLANPEPAPEPKVLSSAASLPGSELPSSRPEGSQGGELSRCSSMSSLSREVSQHFNQAPGDLPAAGGPPSGAMPFYNPAQLAQACATSGSSRLGRIGQRKHLVLN
# B2: full-length p115–GFP (wild type) [human] / Sec13 [human (endogenous in HEK293T)] (parent complex)
# chain 1: B1 chain 1
# chain 2: MVSVINTVDTSHEDMIHDAQMDYYGTRLATCSSDRSVKIFDVRNGGQILIADLRGHEGPVWQVAWAHPMYGNILASCSYDRKVIIWREENGTWEKSHEHAGHDSSVNSVCWAPHDYGLILACGSSDGAISLLTYTGEGQWEVKKINNAHTIGCNAVSWAPAVVPGSLIDHPSGQKPNYIKRFASGGCDNLIKLWKEEEDGQWKEEQKLEAHSDWVRDVAWAPSIGLPTSTIASCSQDGRVFIWTCDDASSNTWSPKLLHKFNDVVWHVSWSITANILAVSGGDNKVTLWKESVDGQWVCISDVNKGQGSVSASVTEGQQNEQ
# Variants of: B1
# Test: co-precipitation with p115–GFP, volcano plot of protein enrichment; HEK293T cells; means of biological triplicates; read off a plot
row,Variant,screen value
1,chain 1 Q462D,~6.1

# Variants of: B2
# Test: as above
row,Variant,screen value
1,chain 1 Q462D,~5.8
